What was measured:
[1] = target: T1, 6HisRsmA (RsmAxcc) (Xanthomonas citri subsp. citri strain …, UniProt Q8PLP9 1-70); test: EMSA; apparent Kd; 6.25 nM RNA; 10 mM HEPES pH 7.3, 20 mM KCl, 1 mM MgCl2, 1 mM DTT, 5% glycerol, 0.1 µg/µL yeast tRNA, 20 U RNasin, 25 °C 20 min; 5% native PAGE; details: protein: recombinant; tags: N-terminal 6xHis (pET-28a, NdeI site); chain copies: 2; label: 3' biotin
[2] = target: T1, 6HisRsmA (RsmAxcc); test: EMSA; 10 mM HEPES pH 7.3, 20 mM KCl, 1 mM MgCl2, 1 mM DTT, 5% glycerol, 0.1 µg/µL yeast tRNA, 20 U RNasin, 25 °C 20 min; 5% native PAGE; details: protein: recombinant; tags: N-terminal 6xHis (pET-28a, NdeI site); chain copies: 2; label: 3' biotin
[3] = target: T1, 6HisRsmA (RsmAxcc); test: EMSA; 65 nM protein, 6.25 nM RNA; 10 mM HEPES pH 7.3, 20 mM KCl, 1 mM MgCl2, 1 mM DTT, 5% glycerol, 0.1 µg/µL yeast tRNA, 20 U RNasin, 25 °C 20 min; 5% native PAGE; details: protein: recombinant; tags: N-terminal 6xHis (pET-28a, NdeI site); chain copies: 2

T1 sequence (Q8PLP9 whole entry): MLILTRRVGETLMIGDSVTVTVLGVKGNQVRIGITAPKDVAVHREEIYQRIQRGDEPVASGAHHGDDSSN

| Binder | binding result [2] | further results |
| --- | --- | --- |
| ACGAUGCAGCGAUCUUUGAAGAUGGAUUUUGUCCUGGCAUUG (ssRNA) [hrpG2] |  | Kd [1]: 180 ± 200 nM |
| AUUCGUCCAGCUCCGCUGGACUCUC (ssRNA) [hrpG1] | no binding |  |
| GCGCAGCGAUCGCGGAAGGAGAGGGCAAUG (ssRNA) [hrpC] | no binding |  |
| GUUAGGCGCCUGUUGUCUUUUGCUCCGCCCCCCAAAGAGAGAGAC (ssRNA) [hrpX] | no binding |  |
| GCCCAUCGCGCAGAUUGGCAACAUACGGCUACACCGCAUG (ssRNA) [hrpF] | no binding |  |
| GUGUACGGUCCGCAUGUCAUUAAAACGAGGUGCAGUGUG (ssRNA) [hrpB] | no binding |  |
| GGGAAUUCAACUCCAUCUAGGCACAAGGAUGUGCCAUAGUACUCAAGCU (structured_RNA) [R9-43] |  | binding result [3]: binds |
